The subject of series [1] is PKLR TALEN left subunit (synthetic construct (Xanthomonas TALE-FokI)?). Briefly: cell_activity. The following applies: PKD2iPSC, with right subunit; 31% in PKD3iPSC; cleavage also seen by Surveyor assay.
The subject of series [2] is PKLR TALEN right subunit (synthetic construct (Xanthomonas TALE-FokI)?). In words: cell_activity. The following applies: PKD2iPSC, with left subunit; 31% in PKD3iPSC; cleavage also seen by Surveyor assay.

Turning to “TGATCGAGCCACTGTACTCCAGCCTAGGTGACAGACGAGACCCTAGAGA (double strand) [PKLR intron 2 TALEN target, left half-site]”, the TALEN cleavage efficiency in series [1] was 40%.

The sequence “TGATCGAGCCACTGTACTCCAGCCTAGGTGACAGACGAGACCCTAGAGA (double strand) [PKLR intron 2 TALEN target, right half-site]” came in with a TALEN cleavage efficiency in series [2] of 40%.
